Measured values taken from patent US20140178899.

T1: mutant BH3 peptide (aa 108-127) in which Thr119 was substituted to alanine (T119A)
T1 chain: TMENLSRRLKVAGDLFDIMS

T2: peptide corresponding to Beclin's BH3 domain (aa 108-127)
T2 chain: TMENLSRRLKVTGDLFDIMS

B1: DAPk's catalytic domain (DK1), bacterially purified (protein)
chain: MTVFRQENVDDYYDTGEELGSGQFAVVKKCREKSTGLQYAAKFIKKRRTKSSRRGVSREDIEREVSILKEIQHPNVITLHEVYENKTDVILILELVAGGELFDFLAEKESLTEEEATEFLKQILNGVYYLHSLQIAHFDLKPENIMLLDRNVPKPRIKIIDFGLAHKIDFGNEFKNIFGTPEFVAPEIVNYEPLGLEADMWSIGVITYILLSGASPFLGDTKQETLANVSAVNYEFEDEYFSNTSALAKDFIRRLLVKDPKKRMTIQDSLQHPWIKPKDTQQALS
B2: Flag-tagged DAPk (full length) (protein)
chain: MTVFRQENVDDYYDTGEELGSGQFAVVKKCREKSTGLQYAAKFIKKRRTKSSRRGVSREDIEREVSILKEIQHPNVITLHEVYENKTDVILILELVAGGELFDFLAEKESLTEEEATEFLKQILNGVYYLHSLQIAHFDLKPENIMLLDRNVPKPRIKIIDFGLAHKIDFGNEFKNIFGTPEFVAPEIVNYEPLGLEADMWSIGVITYILLSGASPFLGDTKQETLANVSAVNYEFEDEYFSNTSALAKDFIRRLLVKDPKKRMTIQDSLQHPWIKPKDTQQALSRKASAVNMEKFKKFAARKKWKQSVRLISLCQRLSRSFLSRSNMSVARSDDTLDEEDSFVMKAIIHAINDDNVPGLQHLLGSLSNYDVNQPNKHGTPPLLIAAGCGNIQILQLLIKRGSRIDVQDKGGSNAVYWAARHGHVDTLKFLSENKCPLDVKDKSGEMALHVAARYGHADVAQLLCSFGSNPNIQDKEEETPLHCAAWHGYYSVAKALCEAGCNVNIKNREGETPLLTASARGYHDIVECLAEHGADLNACDKDGHIALHLAVRRCQMEVIKTLLSQGCFVDYQDRHGNTPLHVACKDGNMPIVVALCEANCNLDISNKYGRTPLHLAANNGILDVVRYLCLMGASVEALTTDGKTAEDLARSEQHEHVAGLLARLRKDTHRGLFIQQLRPTQNLQPRIKLKLFGHSGSGKTTLVESLKCGLLRSFFRRRRPRLSSTNSSRFPPSPLASKPTVSVSINNLYPGCENVSVRSRSMMFEPGLTKGMLEVFVAPTHHPHCSADDQSTKAIDIQNAYLNGVGDFSVWEFSGNPVYFCCYDYFAANDPTSIHVVVFSLEEPYEIQLNQVIFWLSFLKSLVPVEEPIAFGGKLKNPLQVVLVATHADIMNVPRPAGGEFGYDKDTSLLKEIRNRFGNDLHISNKLFVLDAGASGSKDMKVLRNHLQEIRSQIVSVCPPMTHLCEKIISTLPSWRKLNGPNQLMSLQQFVYDVQDQLNPLASEEDLRRIAQQLHSTGEINIMQSETVQDVLLLDPRWLCTNVLGKLLSVETPRALHHYRGRYTVEDIQRLVPDSDVEELLQILDAMDICARDLSSGTMVDVPALIKTDNLHRSWADEEDEVMVYGGVRIVPVEHLTPFPCGIFHKVQVNLCRWIHQQSTEGDADIRLWVNGCKLANRGAELLVLLVNHGQGIEVQVRGLETEKIKCCLLLDSVCSTIENVMATTLPGLLTVKHYLSPQQLREHHEPVMIYQPRDFFRAQTLKETSLTNTMGGYKESFSSIMCFGCHDVYSQASLGMDIHASDLNLLTRRKLSRLLDPPDPLGKDWCLLAMNLGLPDLVAKYNTSNGAPKDFLPSPLHALLREWTTYPESTVGTLMSKLRELGRRDAADFLLKASSVFKINLDGNGQEAYASSCNSGTSYNSISSVVSR

Tests used:
[1] = biological target: T1, mutant BH3 peptide (aa 108-127) in …
[2] = biological target: T2, peptide corresponding to Beclin's BH3 …
[3] = biological target: Flag-tagged Beclin-1 (wild type)
[4] = biological target: GST protein (GST alone) [GST: P08515]
[5] = biological target: GST-Beclin-1 fusion protein (wild type, bacterially purified, not phosphorylated)
GST-Beclin-1 fusion protein (wild type, bacterially purified, not phosphorylated), sequence (chain, as listed by the source): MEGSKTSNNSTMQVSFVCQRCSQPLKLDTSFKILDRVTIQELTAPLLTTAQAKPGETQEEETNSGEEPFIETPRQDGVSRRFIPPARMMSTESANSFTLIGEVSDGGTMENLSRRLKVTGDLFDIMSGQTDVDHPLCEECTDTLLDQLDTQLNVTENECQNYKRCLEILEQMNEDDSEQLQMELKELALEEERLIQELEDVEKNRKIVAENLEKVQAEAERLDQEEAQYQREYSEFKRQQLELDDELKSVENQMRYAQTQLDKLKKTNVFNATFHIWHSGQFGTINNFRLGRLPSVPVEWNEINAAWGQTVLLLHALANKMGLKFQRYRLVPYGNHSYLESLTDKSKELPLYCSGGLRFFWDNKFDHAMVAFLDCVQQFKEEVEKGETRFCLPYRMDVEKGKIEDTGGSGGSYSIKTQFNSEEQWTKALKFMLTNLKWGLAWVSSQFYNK

Flag-tagged Beclin-1 (wild type), sequence (chain, as listed by the source): as above
GST protein (GST alone) [GST: P08515], sequence (P08515 whole entry, the tested form may be a part): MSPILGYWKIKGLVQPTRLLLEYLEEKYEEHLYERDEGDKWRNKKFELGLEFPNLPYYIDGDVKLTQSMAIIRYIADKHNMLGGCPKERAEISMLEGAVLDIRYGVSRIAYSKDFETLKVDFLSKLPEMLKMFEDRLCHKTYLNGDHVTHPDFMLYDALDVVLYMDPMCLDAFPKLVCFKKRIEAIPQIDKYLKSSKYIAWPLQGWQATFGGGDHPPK

Protein	peptide phosphorylation, filter assay counts [1]	peptide phosphorylation, filter assay counts against substrate concentration [2]	in vitro kinase assay, 33P incorporation (X-ray film) [3]	in vitro kinase assay, 33P incorporation (X-ray film) [4]	in vitro kinase assay, 33P incorporation (X-ray film) [5]	phosphorylation site mapping by mass spectrometry [5]
B1	Changing Thr119 to alanine strongly inhibited the extent of peptide phosphorylation	DAPk phosphorylates Beclin's BH3 peptide in a dose-dependent manner				
B2			The phosphorylation by Flag-tagged (60 ng) DAPk was also observed when Flag-tagged Beclin-1 (250 ng), immunoprecipitated from HEK293T cells, was used as a substrate	GST-Beclin-1, but not GST alone, was phosphorylated by DAPk	GST-Beclin-1, but not GST alone, was phosphorylated by DAPk	two phosphorylation sites were identified with good accuracy ... a phosphorylation on S104 or T108, and the second was identified as Thr119
